Legend:
[1] = target: recombinant human CTLA-4-His-tag protein (Homo sapiens (Human).) (UniProt P16410); assay: SPR
[2] = target: recombinant human CTLA-4-His-tag protein (Homo sapiens (Human)., UniProt P16410); assay: SPR
Chain of recombinant human CTLA-4-His-tag protein (P16410 36-161): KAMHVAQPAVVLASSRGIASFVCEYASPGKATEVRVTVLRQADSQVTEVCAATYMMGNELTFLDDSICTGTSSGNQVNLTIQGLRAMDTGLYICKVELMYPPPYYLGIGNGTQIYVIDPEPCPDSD

ipilimumab (antibody)
Kd [1]: 16.1 nM

B1: JS007, humanized IgG1 anti-CTLA-4 monoclonal antibody (antibody, V domains shown)
VH: QVQLQESGPGLVKPSQTLSLTCTVSAYSITSGYYWNWIRQHPGKGLEWIGYIGYDGSNNYNPSLKSRVTISRDTSKNQFSLKLSSVTAADTAVYYCARDYYSGYFDSWGQGTTLTVSS
VL: DIQMTQSPSSLSASVGDRVTITCRASQNVGTYVAWYQQKPGKVPKPLIYSTSYRYSGVPSRFSGSGSGTDFTLTISSLQPEDVATYFCHQYDTYPLTFGAGTKLELK
Kd [2]: 0.21 nM

Source: PMC9754112 (mAbs, 2022)
